Assay results as given in publication PMC2114528.
Where two headings read alike, the source gives them in different places.

What was measured:
[1] = target: ECGF receptor (Mr 150,000 polypeptide) on LEII cells (mouse (endogenous in LEII cells)) (UniProt P16092); test: radioligand binding
[2] = target: ECGF receptor (Mr 150,000 polypeptide) on LEII cells (mouse (endogenous in LEII cells)) (UniProt P16092); test: radioligand binding; remark: listed apart in the source

Chain of UniProt P16092 (P16092 22-822): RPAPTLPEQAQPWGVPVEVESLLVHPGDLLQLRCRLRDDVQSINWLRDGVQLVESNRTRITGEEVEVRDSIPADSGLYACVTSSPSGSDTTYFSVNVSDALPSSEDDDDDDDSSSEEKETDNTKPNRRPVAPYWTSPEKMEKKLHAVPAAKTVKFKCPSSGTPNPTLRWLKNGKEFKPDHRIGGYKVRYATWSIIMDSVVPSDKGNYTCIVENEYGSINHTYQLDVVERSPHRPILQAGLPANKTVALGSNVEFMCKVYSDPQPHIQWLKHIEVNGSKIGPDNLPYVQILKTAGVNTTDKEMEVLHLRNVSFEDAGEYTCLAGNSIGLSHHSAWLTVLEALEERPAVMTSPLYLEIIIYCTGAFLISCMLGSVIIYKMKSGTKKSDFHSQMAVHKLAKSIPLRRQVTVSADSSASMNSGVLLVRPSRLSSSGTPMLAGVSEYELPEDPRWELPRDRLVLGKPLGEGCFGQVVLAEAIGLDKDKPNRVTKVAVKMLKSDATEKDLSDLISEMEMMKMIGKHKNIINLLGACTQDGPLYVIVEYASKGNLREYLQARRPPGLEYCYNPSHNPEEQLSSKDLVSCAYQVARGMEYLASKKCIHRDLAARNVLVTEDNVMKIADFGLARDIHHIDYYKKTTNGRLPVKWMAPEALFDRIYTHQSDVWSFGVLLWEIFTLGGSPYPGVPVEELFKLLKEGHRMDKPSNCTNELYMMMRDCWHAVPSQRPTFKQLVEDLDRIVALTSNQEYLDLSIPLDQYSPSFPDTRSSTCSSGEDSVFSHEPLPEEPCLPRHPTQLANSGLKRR

Substance: alpha-endothelial cell growth factor (ligand)
- Kd [1]: 0.2 nM
- Kd [2]: 0.25 nM
